Patent US20060127402A1 (TECHNION RESEARCH AND DEVELOPMENT FOUNDATION, published 2006)

Target: T1, LOR-1 (lysyl oxidase related protein-1) (human, UniProt Q9Y4K0 26-774, limits assumed)
T1 construct: also called hLOR1
T1 sequence: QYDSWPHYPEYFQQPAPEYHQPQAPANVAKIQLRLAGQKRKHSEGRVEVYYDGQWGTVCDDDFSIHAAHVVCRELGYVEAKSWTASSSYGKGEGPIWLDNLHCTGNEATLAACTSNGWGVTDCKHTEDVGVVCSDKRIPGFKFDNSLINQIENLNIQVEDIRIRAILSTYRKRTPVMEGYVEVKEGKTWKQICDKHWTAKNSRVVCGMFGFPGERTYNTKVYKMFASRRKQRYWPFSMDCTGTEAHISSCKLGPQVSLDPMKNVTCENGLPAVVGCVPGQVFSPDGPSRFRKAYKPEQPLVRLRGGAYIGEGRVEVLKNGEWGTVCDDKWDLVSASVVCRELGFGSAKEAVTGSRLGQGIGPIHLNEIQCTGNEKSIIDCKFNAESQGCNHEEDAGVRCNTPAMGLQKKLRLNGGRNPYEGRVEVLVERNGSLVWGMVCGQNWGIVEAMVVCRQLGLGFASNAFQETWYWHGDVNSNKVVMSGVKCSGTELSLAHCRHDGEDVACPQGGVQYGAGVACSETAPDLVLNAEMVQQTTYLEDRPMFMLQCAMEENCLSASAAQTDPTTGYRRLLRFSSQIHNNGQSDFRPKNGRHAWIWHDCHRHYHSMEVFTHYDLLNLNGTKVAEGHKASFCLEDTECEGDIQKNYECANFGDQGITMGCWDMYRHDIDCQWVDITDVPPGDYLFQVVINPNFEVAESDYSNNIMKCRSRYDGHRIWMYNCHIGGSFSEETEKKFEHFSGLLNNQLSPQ
Test: PF4 affinity column, 35S-methionine labeled cells, SDS-PAGE

binding result: binds
B1: Human recombinant platelet factor-4 (PF4, GenBank Accession number M20901) (ligand, UniProt P02776 32-101, looked up)
chain: EAEEDGDLQCLCVKTTSQVRPRHITSLEVIKAGPHCPTAQLIATLKNGRKICLDLQAPLYKKIIKKLLES
notes: Supplied by Repligen Corp
